Source: patent publication US8703913B2, “Sensor” (Medical Research Council, priority 2008, dated 2014)
Substitutions are numbered along the chain they refer to. In names and notes the source's numbering stands.

B1: IDCC-ParM (D63C): ParM D63C/C287A labeled with IDCC (conjugate, UniProt P11904 1-320, looked up, variant D63C C287A)
Plasmid segregation protein …: MLVFIDDGSTNIKLQWQESDGTIKQHISPNSFKREWAVSFGDKKVFNYTLNGEQYSFDPISPCAVVTTNIAWQYSDVNVVAVHHALLTSGLPVSEVDIVCTLPLTEYYDRNNQPNTENIERKKANFRKKITLNGGDTFTIKDVKVMPESIPAGYEVLQELDELDSLLIIDLGGTTLDISQVMGKLSGISKIYGDSSLGVSLVTSAVKDALSLARTKGSSYLADDIIIHRKDNNYLKQRINDENKISIVTEAMNEALRKLEQRVLNTLNEFSGYTHVMVIGGGAELIADAVKKHTQIRDERFFKTNNSQYDLVNGMYLIGN
modifications: IDCC label
B2: T175F: MDCC-ParM (His6/I27C/T175F/C287A) (conjugate, UniProt P11904 1-320, looked up, variant I27C T175F C287A)
Plasmid segregation protein …: B1 Plasmid segregation protein … with I27C, C63D, T175F
modifications: MDCC label; His6 tag
B3: T175H: MDCC-ParM (His6/I27C/T175H/C287A) (conjugate, UniProt P11904 1-320, looked up, variant I27C T175H C287A)
Plasmid segregation protein …: B1 Plasmid segregation protein … with I27C, C63D, T175H
modifications: MDCC label; His6 tag
B4: IDCC-ParM (T215C): ParM T215C/C287A labeled with IDCC (conjugate, UniProt P11904 1-320, looked up, variant T215C C287A)
Plasmid segregation protein …: B1 Plasmid segregation protein … with C63D, T215C
modifications: IDCC label
B5: CPM-ParM (S204C): ParM S204C/C287A labeled with CPM (conjugate, UniProt P11904 1-320, looked up, variant S204C C287A)
Plasmid segregation protein …: B1 Plasmid segregation protein … with C63D, S204C
modifications: CPM label
B6: S9Q: MDCC-ParM (His6/S9Q/I27C/C287A) (conjugate, UniProt P11904 1-320, looked up, variant S9Q I27C C287A)
Plasmid segregation protein …: B1 Plasmid segregation protein … with S9Q, I27C, C63D
modifications: MDCC label; His6 tag
B7: T175N: MDCC-ParM (His6/I27C/T175N/C287A) (conjugate, UniProt P11904 1-320, looked up, variant I27C T175N C287A)
Plasmid segregation protein …: B1 Plasmid segregation protein … with I27C, C63D, T175N
modifications: MDCC label; His6 tag
B8: CPM-ParM (I27C): ParM I27C/C287A labeled with CPM (conjugate, UniProt P11904 1-320, looked up, variant I27C C287A)
Plasmid segregation protein …: B1 Plasmid segregation protein … with I27C, C63D
modifications: CPM label
B9: T174A: MDCC-ParM (His6/I27C/T174A/C287A) (conjugate, UniProt P11904 1-320, looked up, variant I27C T174A C287A)
Plasmid segregation protein …: B1 Plasmid segregation protein … with I27C, C63D, T174A
modifications: MDCC label; His6 tag
B10: IDCC-ParM (S204C): ParM S204C/C287A labeled with IDCC (conjugate, UniProt P11904 1-320, looked up, variant S204C C287A)
Plasmid segregation protein …: B1 Plasmid segregation protein … with C63D, S204C
modifications: IDCC label
B11: E148R: MDCC-ParM (His6/I27C/E148R/C287A) (conjugate, UniProt P11904 1-320, looked up, variant I27C E148R C287A)
Plasmid segregation protein …: B1 Plasmid segregation protein … with I27C, C63D, E148R
modifications: MDCC label, His6 tag
B12: S9A: MDCC-ParM (His6/S9A/I27C/C287A) (conjugate, UniProt P11904 1-320, looked up, variant S9A I27C C287A)
Plasmid segregation protein …: B1 Plasmid segregation protein … with S9A, I27C, C63D
modifications: MDCC label; His6 tag
B13: CPM-ParM (T215C): ParM T215C/C287A labeled with CPM (conjugate, UniProt P11904 1-320, looked up, variant T215C C287A)
Plasmid segregation protein …: B1 Plasmid segregation protein … with C63D, T215C
modifications: CPM label
B14: T175A: MDCC-ParM (His6/I27C/T175A/C287A) (conjugate, UniProt P11904 1-320, looked up, variant I27C T175A C287A)
Plasmid segregation protein …: B1 Plasmid segregation protein … with I27C, C63D, T175A
modifications: MDCC label; His6 tag
B15: PcrA: DNA helicase from Bacillus stearothermophilus involved in plasmid replication (protein, UniProt P56255 1-724, looked up)
ATP-dependent DNA helicase …: MNFLSEQLLAHLNKEQQEAVRTTEGPLLIMAGAGSGKTRVLTHRIAYLMAEKHVAPWNILAITFTNKAAREMRERVQSLLGGAAEDVWISTFHSMCVRILRRDIDRIGINRNFSILDPTDQLSVMKTILKEKNIDPKKFEPRTILGTISAAKNELLPPEQFAKRASTYYEKVVSDVYQEYQQRLLRNHSLDFDDLIMTTIQLFDRVPDVLHYYQYKFQYIHIDEYQDTNRAQYTLVKKLAERFQNICAVGDADQSIYRWRGADIQNILSFERDYPNAKVILLEQNYRSTKRILQAANEVIEHNVNRKPKRIWTENPEGKPILYYEAMNEADEAQFVAGRIREAVERGERRYRDFAVLYRTNAQSRVMEEMLLKANIPYQIVGGLKFYDRKEIKDILAYLRVIANPDDDLSLLRIINVPKRGIGASTIDKLVRYAADHELSLFEALGELEMIGLGAKAAGALAAFRSQLEQWTQLQEYVSVTELVEEVLDKSGYREMLKAERTIEAQSRLENLDEFLSVTKHFENVSDDKSLIAFLTDLALISDLDELDGTEQAAEGDAVMLMTLHAAKGLEFPVVFLIGMEEGIFPHNRSLEDDDEMEEERRLAYVGITRAEEELVLTSAQMRTLFGNIQMDPPSRFLNEIPAHLLETASRRQAGASRPAVSRPQASGAVGSWKVGDRANHRKWGIGTVVSVRGGGDDQELDIAFPSPIGIKRLLAKFAPIEKV

Experiments:
[1] = Screening mutant/fluorophore combinations for a fluorescence response to ADP; settings: ParM mutant/fluorophore combination
[2] = Fluorescence titration of labeled ParM with ATP; assay type: binding; settings: Table 2; for ATP F+ATP/F−ATP: MDCC-ParM mutants; for ATP F+ATP/F−ATP / Kd: 20° C.; for Kd: highly purified ATP containing only 0.03% ADP
Experimental: The MDCC fluorescence was excited at 431 nm and emission was recorded at 474 nm. The equilibrium dissociation constants were determined by fitting a quadratic binding curve to the data. For the plot the experimental fluorescence intensities were converted to the nucleotide bound fraction of ParM.
(§1) The equilibrium dissociation constants were determined by fitting a quadratic binding curve to the data and are listed in Table Y. For the plot the experimental fluorescence intensities were normalized to the maximal fluorescence change obtained at saturation with ADP.
ADP and ATP were purchased from Sigma at the highest purity available. The purity of the nucleotides was analysed by HPLC using a Partisphere SAX column, 125×4.5 mm (Whatman). Nucleotide separation was performed isocratic with 0.3 M (NH4)2HPO4 buffer pH 4.0, 25% MeOH, and the absorbance at 260 nm was monitored.
(§2) [formula] where [P] and [L] are the total concentrations of protein and ligand, respectively, Kd is the dissociation constant and Fmin and Fmax are the fluorescence intensities of the free and ligand bound protein.
(§3) Fluorescence spectra and titrations were measured in a Cary Eclipse spectrofluorimeter (Varian). Excitation and emission spectra were recorded with 5 nm slit width at emission and excitation wavelength of 576 nm and 553 nm, respectively. In titration experiments rhodamine fluorescence was measured at the same excitation/emission wavelength. Titration data were analyzed with a quadratic binding curve using the program Grafit 5.0 (7).

[3] = Fluorescence titration of labeled ParM with ADP; assay type: binding; settings: Table 2, 20° C.; for ADP F+ADP/F−ADP: MDCC-ParM mutants; for Kd: fluorescence titration
Experimental: MDCC fluorescence was excited at 431 nm and detected at 474 nm, for the rhodamine-labeled proteins, excitation and emission wavelengths of 553 nm and 578 nm were used. […] The fraction of ParM bound to ADP was calculated from the fluorescence intensities.
The MDCC fluorescence was excited at 431 nm and emission was recorded at 474 nm. The equilibrium dissociation constants were determined by fitting a quadratic binding curve to the data.
as §1, §2, §3

[4] = Stopped-flow kinetics of ADP binding and dissociation; settings: Table 3
PcrA helicase = PcrA helicase (Geobacillus stearothermophilus, UniProt P56255); assay: Steady-state ATP hydrolysis by PcrA helicase monitored with the biosensor; assay type: biochemical, Bacillus stearothermophilus; settings: for initial rate of ADP generation: 3.8 μM dT16, 10 μM MDCC-ParM, 20° C.
[5] = 2 nM PcrA, 0.5 μM dT20, 5 μM MDCC-ParM, set of calibration curves
[6] = measured with phosphate biosensor MDCC-PBP

Molecule	Fluorescence change, ratio of the intensity in presence of 1 mM ADP to that in the absence of ADP [1]	Kd ratio ATP/ADP [2]	ATP F+ATP/F−ATP [2]	Kd [2]	ADP F+ADP/F−ADP [3]	Kd [3]	other results
B1	0.53	–	–	–	–	–	–
B2	–	29	2.5	137000 nM	2.5	4700 nM	–
B3	–	0.4	3.9	160 nM	3.2	400 nM	–
B4	0.74	–	–	–	–	–	–
B5	0.62	–	–	–	–	–	–
B6	–	40	2.8	66000 nM	3.2	1660 nM	–
B7	–	307	3.2	184000 nM	3.4	600 nM	kon ([4]; ADP association, stopped-flow, 20° C.): 640000 M⁻¹ s⁻¹; Kd ([4]; calculated as koff/kon): 420 nM; koff ([4]; displacement with unlabeled ParM, 20° C.): 0.27 s⁻¹
B8	0.62	–	–	–	–	–	–
B9	–	164	3.1	64000 nM	2.9	390 nM	–
B10	0.80	–	–	–	–	–	–
B11	–	–	<1.1	–	<1.1	–	–
B12	–	39	2.9	98000 nM	3.1	2500 nM	–
B13	0.76	–	–	–	–	–	–
B14	–	168	3.3	62000 nM	3.3	370 nM	–
B15	–	–	–	–	–	–	initial rate of ADP generation (PcrA helicase; 1 nM PcrA, 5 μM ATP): 10.4 nM/s; Km (PcrA helicase; [5]): 1.6 µM; kcat (PcrA helicase; [5]): 13.7 s⁻¹; initial rate of ADP generation (PcrA helicase; 2 nM PcrA, 5 μM ATP): 19.9 nM/s; kcat (PcrA helicase; calibration at 15 μM total nucleotide concentration): 14.0 s⁻¹; kcat (PcrA helicase; calibration in the absence of ATP): 12.2 s⁻¹; steady state hydrolysis activity (PcrA helicase; measured with MDCC-ParM, 5 μM ATP, background subtracted): 6.8 s⁻¹; Km (PcrA helicase; [6]): 1.7 µM; kcat (PcrA helicase; [6]): 11.5 s⁻¹; steady state hydrolysis activity (PcrA helicase; [6]): 7.2 s⁻¹; Michaelis-Menten constant for ATP (PcrA helicase; single calibration used for all ATP concentrations): 1.4 µM
